Laboratory results reported in US8480647B2, “Delivery device for delivering bioactive agents to internal tissue in a body” (Bioprotect Ltd., priority 2007, dated 2013).

What was measured:
[1] = Release from L-PLA-co PEG5000 hydrogel-wall balloons in aqueous media; type: physicochemical; conditions: 1 cm balloons of L-PLA-co PEG5000 triblock or 50:50 mixture with L-PLA, 200 and 300 micron wall thicknesses
Description: In a similar experiment, biodegradable balloons of 1 cm diameter were prepared from triblock copolymers of L-PLA-co PEG5000, Mw=80,000 or in a 50:50 mixture with L-PLA Mw=120,000 by the solvent casting on a gelatin mold method. Balloons with 200 and 300 micron wall thicknesses were prepared. These balloons swell when inserted in aqueous media to form hydrogel walls which are permeable to water soluble molecules.

[2] = Release of loaded agents from poly(caprolactone-L-lactide)/PEG porogen balloons; type: physicochemical; conditions: for period of constant release from balloon: loaded with 10% w/v solution
Description: In a typical experiment, dichloromethane solutions of poly(caprolactone-L-lactide) 70:30 w/w, Mw=100,000 and polyethylene glycol Mw=400 (PEG400) and PEG2000 mixed at a 1, 5, 10 and 20 w/w % per polymer were used for producing balloons by dipping as described above. The balloons were immersed in water to allow the leach-out of the water soluble PEG. The balloons were analyzed for pore size, uniformity of pores throughout the membrane, and diffusion of LHRH hormone and BSA (bovine serum albumin) as representative protein. Uniform micron size holes of a similar size were generated for the 1 and 5% PEG but more holes for the 5%, while the 20% PEG generated much larger holes throughout the wall which also affects the strength of the wall. […] The balloon remain inflated for about 4 months in 0.1M phosphate buffer solution at 37° C. before signs of degradation occur measured by a significant decrease in molecular weight and change in the flexibility and clarity of the balloons. In a continuation experiment, lyophilized powder of LHRH (10 mg) on dextrose (100 mg) was dispersed in glycerol (100 mg) and injected into the 10 mm diameter balloon and release under physiological conditions was determined.

Compound	release from hydrogel-wall balloons [1]	release behaviour in comparison with the other loaded agents ([2]; poly(caprolactone-L-lactide)/PEG balloons)	period of constant release from balloon ([2]; 5% PEG balloons of poly(caprolactone-L-lactide) 70:30)	period of constant release from balloon ([2]; 20% PEG balloons of poly(caprolactone-L-lactide) 70:30)	release of native LHRH from balloon, determined by HPLC ([2]; lyophilized LHRH (10 mg) on dextrose (100 mg) dispersed in glycerol (100 mg), 10 mm diameter balloon, physiological conditions)
O=c1[nH]cc(F)c(=O)[nH]1 [5-FU]	constantly release at high amounts for weeks	released much faster for a shorter time period at a zero order profile	–	–	–
CN(Cc1cnc2nc(N)nc(N)c2n1)c1ccc(C(=O)N[C@@H](CCC(=O)O)C(=O)O)cc1 [methotrexate]	constantly release at high amounts for weeks	–	–	–	–
LHRH: LHRH hormone, therapeutic peptide loaded in the balloon	released at low concentrations over time	–	a few months	weeks	constantly released for weeks
